Among the data in the supplement of paper PMC10567573 are protein stability index values, retold here.

± gives the standard deviation.

This data set in a line: protein stability index of a GFP-peptide fusion (GPS, HEK-293T) (PSI 1-6); higher = more stable.
The mark [1] stands for this setting: treatment: DMSO, c terminus: a fixed tail appended.
The mark [2] stands for this setting: treatment: MLN4924 1 uM, 8 h, c terminus: a fixed tail appended.
The mark [3] stands for this setting: treatment: DMSO, c terminus: native.
Setting [4] is: treatment: MLN4924 1 uM, 8 h, c terminus: native.
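Further: 24-mer peptide tiles fused after GFP, lentivirally expressed, FACS-sorted into six equal bins by GFP/DsRed ratio, decoded by Illumina sequencing, PSI is the read-weighted mean bin number.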

Consider CVHPRGGVIQSVSSWKHGSGTQYV [C18orf25], for which the protein stability index was 2.58 ± 0.42 under setting [1] and 2.32 ± 0.39 under setting [2].

As for CYYQPAPYVSDGNFSNYYVAHPPV [TENT5C], the protein stability index reads like this: under setting [1], 2.24 ± 0.3; under setting [2], 2.43 ± 0.45.

For the sequence DAEGLAARDVQKIIGDYFSDQDPR [INTS4], the protein stability index is 4.95 ± 0.15 under setting [1] and 4.86 ± 0.32 under setting [2].

As for DAFVKIVRHEGTRTLWSGLPATLV [SLC25A39], the protein stability index was 2.6 ± 0.61 under setting [1] and 2.03 ± 0.22 under setting [2].

On to DAGEESRVQVLKNEVRRGSPVLLG [TIAF1], for which the protein stability index runs as follows: under setting [1], 4.33 ± 0.092; under setting [2], 4.55 ± 0.24.

Consider DASILTEMPTQPGKPLIPPMNRRN [NETO1], for which the protein stability index came out at 4.45 ± 0.25 under setting [1] and 4.64 ± 0.13 under setting [2].

As for DATPPVSPINMEDQERIKVERKRL [JUNB], the protein stability index is, setting by setting: under setting [1], 5.53 ± 0.2; under setting [2], 5.36 ± 0.4.

Consider DCLAAWEEWLLVGTKQGHLLLYRI [VPS39], for which the protein stability index was 2.92 ± 1.1 under setting [1] and 2.51 ± 0.32 under setting [2].

On to DCSFPGLPRHQDQPHHQPPNRAGA [TRAF3IP2], for which the protein stability index runs as follows: under setting [1], 4.91 ± 0.062; under setting [2], 5.03 ± 0.14.

As to DDDAEEEGPKRELGVRRPGGAGKE [TCF25], the protein stability index is, setting by setting: under setting [1], 5.58 ± 0.2; under setting [2], 5.66 ± 0.15.

With DDDKGDSKETRLTLMEEVLLLGLK [GOLPH3], the protein stability index under setting [1] worked out at 3.16 ± 0.36 and the protein stability index under setting [2] is 3.65 ± 0.32.

As for DDPATLGPHLGLRGVPQSTAASS [DYRK1B], the protein stability index by setting is: under setting [3], 3.28 ± 0.28; under setting [4], 3.29 ± 0.085.

In the case of DEMYEVRIAAVEALCMLAQSSPSF [INTS4], the protein stability index came to 2.69 ± 0.81 under setting [1] and 2.31 ± 0.11 under setting [2].

In turn, DEPSKPTLALEYTYGRRAKGHNTP [DYNC2LI1] returned a protein stability index under setting [1] of 4.48 ± 0.23 and a protein stability index under setting [2] of 4.65 ± 0.21.

Take DETTRSDISERPSVDDIESETGST [C2CD2L]: the protein stability index under setting [1] amounted to 5.68 ± 0.1 and the protein stability index under setting [2] is 5.6 ± 0.32.

As to DFHKPFLGGFRHKVTGVEYHNAGT [IQUB], the protein stability index reads like this: under setting [1], 2.88 ± 0.32; under setting [2], 2.88 ± 0.16.

Take DFKEDLKKFRTKSRTWAGEKSKRE [CDC25A]: the protein stability index reads like this: under setting [1], 4.88 ± 0.52; under setting [2], 4.92 ± 0.15.

In the case of DFLAVLSDYPSPDISPPIFRRGEK [SLA], the protein stability index reads like this: under setting [1], 2.63 ± 0.18; under setting [2], 2.75 ± 0.51.

Sequence DGKSLVSVTKEGLELPEDEEEKKK [HSP90AB1] displayed a protein stability index under setting [1] of 5.61 ± 0.2 and a protein stability index under setting [2] of 5.44 ± 0.3.

DGLKRRQQLEEELLRAKIEVEKLK [RAD54B] yielded a protein stability index under setting [1] of 4.67 ± 0.31 and a protein stability index under setting [2] of 4.85 ± 0.32.

In the case of DGNKDVYLSLLRMYLSPPSIHCLG [VPS39], the protein stability index is, setting by setting: under setting [1], 2.94 ± 0.57; under setting [2], 2.72 ± 0.33.

For the sequence DGSLILVSASRDKTLRVWDLKDDG [WSB1], the protein stability index reads like this: under setting [1], 2.74 ± 0.31; under setting [2], 3.03 ± 0.21.

On to DGSVRIWELREKQQLAAEPVPTGF [WDR41], for which the protein stability index amounted to 3.87 ± 0.16 under setting [1] and 3.72 ± 0.32 under setting [2].

On to DHQTLLSAAHEVELQRQKEAEKLE [NOP53], for which the protein stability index by setting is: under setting [1], 5.46 ± 0.15; under setting [2], 5.42 ± 0.38.

Regarding DHSEHLSGSSYRDALQRYGTSHGA [RBMY1A1], the protein stability index is 3.89 ± 0.12 under setting [1] and 4.37 ± 0.38 under setting [2].

For the sequence DHSGFISLDEFRQTWKLFSSHMNI [PPEF2], the protein stability index is, setting by setting: under setting [1], 2.29 ± 0.26; under setting [2], 2.08 ± 0.36.

With DIEDVFYKYGAIRDIDLKNRRGGP [SRSF1], the protein stability index under setting [1] was found to be 3.32 ± 0.48 and the protein stability index under setting [2] is 3.39 ± 0.17.

Consider DINNNFPDLNTLLWEAEDRQNVPR [CPXM2], for which the protein stability index amounted to 3.78 ± 0.35 under setting [1] and 4.15 ± 0.2 under setting [2].

For DIRLTLMEEVLLLGLKDKEGYTSF [GOLPH3L], the protein stability index is 2.26 ± 0.44 under setting [1] and 2.2 ± 0.55 under setting [2].

As to DKSPSTVRDQGPSIPLTPGDTPIR [FBF1], the protein stability index is 5.08 ± 0.18 under setting [1] and 5.26 ± 0.18 under setting [2].

As to DLNRHLDEMCANNDFVQVDPGQVG [FAN1], the protein stability index turned out to be 4.29 ± 0.4 under setting [1] and 4.63 ± 0.058 under setting [2].

Take DLPWFRTLSWYFLLCVNYFFYGET [CDS2]: the protein stability index stood at 3.95 ± 0.26 under setting [1] and 3.23 ± 0.97 under setting [2].

As for DLSAANEKNLLLQNQVDELERKFR [LRRC45], the protein stability index reads like this: under setting [1], 3.96 ± 0.38; under setting [2], 4.08 ± 0.62.

As for DMWRSENQNRAYVTLAAHFLGLGA [ZBED1], the protein stability index came to 2.13 ± 0.24 under setting [1] and 2.01 ± 0.4 under setting [2].

Turning to DNIREAFQIYDKEASGYVDRDMFF [EFHC1], the protein stability index reads like this: under setting [1], 3.5 ± 0.29; under setting [2], 3.42 ± 0.18.

In the case of DPDGKKIKQIQQLFEEILSNSRQL [FBXO33], the protein stability index worked out at 2.54 ± 0.41 under setting [1] and 2.77 ± 0.24 under setting [2].

Take DPLTYKSRLMVVVKMDSSIQPGPF [RHOBTB2]: the protein stability index under setting [1] was 2.05 ± 0.53 and the protein stability index under setting [2] came to 2.08 ± 0.25.

DPRVQDFLQRCLESPFSRKLDLWS [NET1] had a protein stability index under setting [1] of 2.34 ± 0.25 and a protein stability index under setting [2] of 2.27 ± 0.25.

For DPRYELPSRKYISTKAIPEKYGAV [ZBED1], the protein stability index runs as follows: under setting [1], 3.55 ± 0.18; under setting [2], 3.55 ± 0.19.

As for DPSKLDSGKELKIDIIPNPQERTL [HSP90AB1], the protein stability index by setting is: under setting [1], 5.15 ± 0.11; under setting [2], 5.31 ± 0.078.

On to DPTQRILYRDVMLETFGHLLSIGP [ZNF8], for which the protein stability index worked out at 2.21 ± 0.23 under setting [1] and 2.25 ± 0.22 under setting [2].

Take DPYLSYRWKRRRSYSREHEGRLRY [CLK3]: the protein stability index runs as follows: under setting [1], 3.54 ± 0.33; under setting [2], 3.57 ± 0.56.

On to DQDGEYCPEVKLKTTGLEEAAEAE [SRPK2], for which the protein stability index amounted to 5.63 ± 0.3 under setting [1] and 5.81 ± 0.18 under setting [2].

For DQFIPIWTVANMEEIKKLTTDPDL [LARP4], the protein stability index came to 3.97 ± 0.12 under setting [1] and 3.82 ± 0.42 under setting [2].

On to DRLWRPSKVLSLQDLCCRAVVSCT [RAB40B], for which the protein stability index reads like this: under setting [1], 3.01 ± 0.17; under setting [2], 2.8 ± 0.21.

On to DSDEATAARLLFNMAGVTFRKFIP [DCTD], for which the protein stability index stood at 2.55 ± 0.19 under setting [1] and 2.58 ± 0.59 under setting [2].

Consider DSEEEVIERANNVKYGLAATVWSS [ALDH8A1], for which the protein stability index is, setting by setting: under setting [1], 4.03 ± 0.17; under setting [2], 4.15 ± 0.17.

Regarding DSNSGCLGDTQFCFRFRQSSGRRV [DENND6A], the protein stability index runs as follows: under setting [1], 3.24 ± 0.35; under setting [2], 3.06 ± 0.52.

For DSQAPAGSLDLVPGGLTLEEHSLE [SPDEF], the protein stability index runs as follows: under setting [1], 5.36 ± 0.21; under setting [2], 5.45 ± 0.33.

Sequence DSVKVALLETNPYLLALTIIVSIV [CLPTM1] had a protein stability index under setting [1] of 2.08 ± 0.28 and a protein stability index under setting [2] of 2.3 ± 0.14.

In the case of DTFHQDNQPSGLIRTYLGRSPLVS [RHOBTB3], the protein stability index under setting [1] stood at 3.24 ± 0.1 and the protein stability index under setting [2] was determined as 3.24 ± 0.16.

In the case of DTVFRFDPRYNKWMQVASLNEKRT [KLHL13], the protein stability index stood at 2.87 ± 0.41 under setting [1] and 3.14 ± 0.41 under setting [2].

With DVVKTQRQVALGAMEAVRVNPLHV [SLC25A39], the protein stability index is, setting by setting: under setting [1], 3.05 ± 0.22; under setting [2], 3.23 ± 0.13.

DWVMWAVNEFSLKGVDFQKFCMNG [ETS1]: the protein stability index worked out at 3.16 ± 0.39 under setting [1] and 3.05 ± 0.47 under setting [2].

In the case of DYRQEQPETFWIQRAPQLPTWWPL [SPAG8], the protein stability index under setting [1] was 2.48 ± 0.15 and the protein stability index under setting [2] turned out to be 2.57 ± 0.19.

Turning to EADPPASDLPTPQAIEPQAIVQQV [SNX8], the protein stability index turned out to be 5.34 ± 0.11 under setting [1] and 5.2 ± 0.24 under setting [2].

As to EAGASLVDQKLELNIVPRTKVVYL [PI4K2A], the protein stability index by setting is: under setting [1], 2.29 ± 0.26; under setting [2], 2.34 ± 0.47.

For the sequence EAGNEFKNIFGTPEFVAPEIVNYE [DAPK3], the protein stability index was 4.02 ± 0.1 under setting [1] and 4.66 ± 0.1 under setting [2].

Consider EALGFSWHDTCFVCAICQINLEGK [PDLIM7], for which the protein stability index stood at 2.48 ± 0.82 under setting [1] and 1.63 ± 0.26 under setting [2].

Consider EALKHPWVCQRSTVASMMHRQETV [CAMK2B], for which the protein stability index amounted to 2.88 ± 0.27 under setting [1] and 2.97 ± 0.21 under setting [2].

Take EAVESTLQTPLDIRLKESINCQLS [TRIM14]: the protein stability index under setting [1] was determined as 4.38 ± 0.44 and the protein stability index under setting [2] came out at 4.34 ± 0.36.

As for EDGSVELESQVQKDGVADSTVISS [C18orf25], the protein stability index by setting is: under setting [1], 5.5 ± 0.2; under setting [2], 5.42 ± 0.28.

As for EDHIAHIIELLGSIPRHFALSGKY [SRPK2], the protein stability index was determined as 2.71 ± 0.4 under setting [1] and 2.63 ± 0.58 under setting [2].

For the sequence EDHIDDAKYCGHLYGLGSGSSYVQ [CNOT7], the protein stability index by setting is: under setting [1], 3.38 ± 0.16; under setting [2], 3.41 ± 0.26.

As to EDLELKKKIFAQLDSIIDDRVILS [CRYL1], the protein stability index was found to be 3.28 ± 0.26 under setting [1] and 3.01 ± 0.36 under setting [2].

With EDSIFGDPKKLLTQYFVQENYLEY [MAGEA6], the protein stability index is, setting by setting: under setting [1], 2.88 ± 0.34; under setting [2], 2.62 ± 0.11.

On to EDTPSDNDSGICMSPESYLGSPQH [ATF4], for which the protein stability index came out at 4.66 ± 0.36 under setting [1] and 4.83 ± 0.22 under setting [2].

With EDTQTDADSSAQAAAQAPENFQEG [TAF7L], the protein stability index reads like this: under setting [1], 5.47 ± 0.52; under setting [2], 5.57 ± 0.42.

Consider EEAVTVLEDLESELDDPGQPVSLR [ZNF24], for which the protein stability index came out at 5.58 ± 0.24 under setting [1] and 5.47 ± 0.21 under setting [2].

In turn, EECRMSGEFPSPVSISIISSTSGG [KRT71] registered a protein stability index under setting [1] of 3.59 ± 0.25 and a protein stability index under setting [2] of 3.6 ± 0.4.

EEDENGLPRRRGLRKKKTTKLRLE [NEUROD6]: the protein stability index under setting [1] is 4.9 ± 0.28 and the protein stability index under setting [2] was 4.94 ± 0.35.

As to EEEEEEEEVDLACTPTDVRDVDI [CCND1], the protein stability index stood at 4.5 ± 0.5 under setting [3] and 5.14 ± 0.34 under setting [4].
